Experimental data as given in patent US20130040894A1, “INHIBITION OR ACTIVATION OF SERINE/THREONINE ULK3 KINASE ACTIVITY” (TALLINN UNIVERSITY OF TECHNOLOGY, priority 2009, published 2013).

Legend:
[1] = tested on: GLI1GFP localization in NIH3T3 cells; assay: Immunofluorescence assay, subcellular localization of GFP-tagged GLI1; assay type: cell-based, mouse; details: coexpressed with GLI1GFP in NIH3T3 cells
Procedure: (§1) NIH3T3 cells were transfected with GLI1GFP and FLAG-tagged expression constructs for ULK3 or ULK3(K139R) in ratio 1:1 on 8-chamber slides (Falcon, BD Biosciences, San Jose Calif., USA). The cells were fixed with 4% paraformaldehyde and washed three times for 5 min with Stain Wash Medium (SWM) (0.5% BSA and 0.01% NaN3 in PBS). Subsequent permeabilization of cells was performed at RT by 10-min incubation in. PBS supplemented with 0.5% Triton X-100. Afterwards, the cells were washed three times for 5 min with SWM, blocked for 30 min in PBS containing 5% bovine serum albumin (BSA), and incubated with mouse monoclonal M2-anti-FLAG antibody (diluted 1:1000 in SWM) for 1 h at RT with gentle agitation. After three washes of 10 min with SWM, the cells were incubated for 30 min with secondary antibody Alexa-Fluor 568 (Invitrogen) (diluted 1:500 in SWM) mixed with nuclear stain Hoechst 33342 (diluted 1:100). Cells were washed twice with SWM and mounted with Mowiol 4-88 (Sigma-Aldrich). GLI1GFP protein localization was assessed in at least 200 FLAG-positive cells under a fluorescent microscope Olympus BX61 with UPLan SApo 40× objective, and the experiment was repeated three times. Confocal images were obtained with a Zeiss LSM-510 META confocal laser-scanning microscope (Carl Zeiss MicroImaging GmbH, Germany) equipped with Plan-Apochromat 63×/1.4 oil immersion objective.
Next we examined if overexpression of ULK3 kinase influences the subcellular localization of GLI1 and GLI2 proteins. […] FLAG-tagged ULK3 and ULK3(K139R) (or respective empty vector) were coexpressed with GFP-tagged GLI1 and GLI2 in NIH3T3 cells. Subcellular localization of GLI1 and GLI2 was determined, and average values were calculated from three independent experiments. ULK3 and its mutant remained almost completely cytoplasmic. GFP-tagged GLI2 localized predominantly in the nucleus and its localization was not altered by ULK3 or ULK3(K139R) (data not shown). Overexpressed GLI1GFP was detected both in cytoplasm and nucleus (FIG. 3A). […] Under the influence of ULK3 localization of GLI1 was shifted.

[2] = tested on: GFP-tagged GLI2 localization in NIH3T3 cells; assay: Immunofluorescence assay, subcellular localization of GFP-tagged GLI2; assay type: cell-based, mouse; details: coexpressed with GFP-tagged GLI2 in NIH3T3 cells
Procedure: as §1, with “After three washes of 10 min with SWM, the cells were incubated for 30 min with secondary antibody Alexa-Fluor 568 (Invitrogen) (diluted 1:500 in SWM) mixed with nuclear stain Hoechst 33342 (diluted 1:100). Cells were washed twice with SWM and mounted with Mowiol 4-88 (Sigma-Aldrich).” left out, “Confocal images were obtained with a Zeiss LSM-510 META confocal laser-scanning microscope (Carl Zeiss MicroImaging GmbH, Germany) equipped with Plan-Apochromat 63×/1.4 oil immersion objective.” left out
Next we examined if overexpression of ULK3 kinase influences the subcellular localization of GLI1 and GLI2 proteins. […] Subcellular localization of GLI1 and GLI2 was determined, and average values were calculated from three independent experiments. […] Overexpressed GLI1GFP was detected both in cytoplasm and nucleus (FIG. 3A). […]

[3] = tested on: GLI1 mRNA expression in HEK293 cells; assay: Quantitative RT-PCR of endogenous GLI1 mRNA expression; assay type: cell-based, human; details: normalized by HPRT; for induction of endogenous GLI1 expression: 72 h; for endogenous GLI1 expression level relative to empty vector: FIG. 5B
Procedure: HEK293 cells were transfected with FLAG-tagged wt ULK3, ULK3(K139R) or respective empty vector in two replicates. After 5 h of incubation one replicate of cells transfected with the vector was induced by SHHC24II. The cells were incubated 24 h and 72 h, washed with PBS. Total RNA was isolated and treated with DNaseI using RNAqueous kit (Ambion) according to manufacture's instructions. cDNA of 2 μg total RNA was synthesised using SuperScript III kit (Ambion). Levels of GLI1 mRNA and mRNA of housekeeping gene HPRT used for normalization were detected in triplicates by quantitative Real-Time PCR. The following GLI1 primers were used for the assay: […]
HEK293 cells were transfected by ULK3 or respective empty vector. Cells transfected with empty vector were induced by 12 nM of SHHC24II and were used as a posititve control. Cells were incubated 24 h and 72 h, and total RNA was isolated. Level of GLI1 expression was measured using QRT-PCR procedure and the obtained data was normalized by expression of housekeeping gene HPRT. Level of GLI1 expression in cells transfected with empty vector was taken as 1.

[4] = tested on: GLI1 in nuclear extracts of Cos1 cells; assay: Cell fractionation analysis with WB; assay type: cell-based, primate; details: cotransfected with FLAG-tagged GLI1 in Cos1 cells, lamin A/C loading control
Procedure: Cos1 cells were transfected with FLAG-tagged expression constructs for GLI1 combined with ULK3, ULK3(K139R) or empty vector in ratio 1:1 on 10 cm plates. Nuclear and whole cell extracts (NE and WCE, respectively) were prepared as described in [36]. All extracts were normalized for protein amounts measured using […] kit (Thermo Scientific). A total 10 μg of protein were separated by SDS-PAGE and transferred to the PVDF membrane (Millipore, Billerica Mass., USA). The membrane was segmented according to the expected size of the detected proteins. Obtained strips were probed with the appropriate antibodies.
WB was performed using a non-blocking technique as described in [37]. Mouse monoclonal M2-anti-FLAG antibody (Sigma-Aldrich) was used for detection of FLAG-tagged GLI1, GLI2, GLI3, ULK3, ULK3(K44R) and ULK3(K139R) by WB in dilution 1:2000. Lamin A/C was detected with mouse monoclonal anti-Lamin A/C antibody (Upstate, Billerica Mass., USA) diluted 1:1000. Mouse monoclonal anti-His antibody (Novagen, Darmstadt, Germany) diluted 1:1500 was used for detection of bacterially expressed and purified GLI1 fragements. […]
To confirm the data from the immunofluorescent staining, we performed cell fractionation analysis. […] Expression of lamin A/C was analyzed as a loading control. ULK3 and ULK3(K139R) were detected mostly in WCEs.

Molecule	cells that retained GLI1 in the cytoplasm ([1]; average of three experiments)	cells with GLI1 mostly in the nucleus ([1]; average of three experiments)	cells with uniform distribution of GLI1 ([1]; average of three experiments)	influence on GLI2 subcellular localization [2]	induction of endogenous GLI1 expression [3]	endogenous GLI1 expression level relative to empty vector [3]	amount of GLI1 in nuclear extracts [4]	influence on GLI1 subcellular localization [1]
ULK3: human serine/threonine kinase, 472 amino acids (SEQ ID NO: 1), overexpressed from cloned cDNA or immunopurified FLAG-tagged (protein, listed as Homo sapiens, PEPTIDE (1)..(472) ULK3) MAGPGWGPPRLDGFILTERLGSGTYATVYKAYAKKDTREVVAIKCVAKKSLNKASVENLLTEIEILKGIRHPHIVQLKDFQWDSDNIYLIMEFCAGGDLSRFIHTRRILPEKVARVFMQQLASALQFLHERNISHLDLKPQNILLSSLEKPHLKLADFGFAQHMSPWDEKHVLRGSPLYMAPEMVCQRQYDARVDLWSMGVILYEALFGQPPFASRSFSELEEKIRSNRVIELPLRPLLSRDCRDLLQRLLERDPSRRISFQDFFAHPWVDLEHMPSGESLGRATALVVQAVKKDQEGDSAAALSLYCKALDFFVPALHYEVDAQRKEAIKAKVGQYVSRAEELKAIVSSSNQALLRQGTSARDLLREMARDKPRLLAALEVASAAMAKEEAAGGEQDALDLYQHSLGELLLLLAAEPPGRRRELLHTEVQNLMARAEYLKEQVKMRESRWEADTLDKEGLSESVRSSCTLQ	2%	70%	25%	not altered	able to induce	approximately 6 times	retained most of the GLI1 in the nuclei	–
ULK3(K139R): kinase-deficient ULK3 mutant with Lysine at position 139 mutated to Arginine (SEQ ID NO:7) (protein, MUTAGEN (1)..(472) mutated ULK3 protein ULK3 (K139R)) MAGPGWGPPRLDGFILTERLGSGTYATVYKAYAKKDTREVVAIKCVAKKSLNKASVENLLTEIEILKGIRHPHIVQLKDFQWDSDNIYLIMEFCAGGDLSRFIHTRRILPEKVARVFMQQLASALQFLHERNISHLDLRPQNILLSSLEKPHLKLADFGFAQHMSPWDEKHVLRGSPLYMAPEMVCQRQYDARVDLWSMGVILYEALFGQPPFASRSFSELEEKIRSNRVIELPLRPLLSRDCRDLLQRLLERDPSRRISFQDFFAHPWVDLEHMPSGESLGRATALVVQAVKKDQEGDSAAALSLYCKALDFFVPALHYEVDAQRKEAIKAKVGQYVSRAEELKAIVSSSNQALLRQGTSARDLLREMARDKPRLLAALEVASAAMAKEEAAGGEQDALDLYQHSLGELLLLLAAEPPGRRRELLHTEVQNLMARAEYLKEQVKMRESRWEADTLDKEGLSESVRSSCTLQ	–	–	–	not altered	failed to activate	failed to activate	significantly lower amounts of GLI1	did not influence
